The values that follow come from publication PMC10786891, “Massively parallel profiling of RNA-targeting CRISPR-Cas13d”.

The chains are these.
T1: EsCas13d, nuclease-dead (Eubacterium siraeum, UniProt B0MS50, R295A;H300A;R849A;H854A)
T1 sequence: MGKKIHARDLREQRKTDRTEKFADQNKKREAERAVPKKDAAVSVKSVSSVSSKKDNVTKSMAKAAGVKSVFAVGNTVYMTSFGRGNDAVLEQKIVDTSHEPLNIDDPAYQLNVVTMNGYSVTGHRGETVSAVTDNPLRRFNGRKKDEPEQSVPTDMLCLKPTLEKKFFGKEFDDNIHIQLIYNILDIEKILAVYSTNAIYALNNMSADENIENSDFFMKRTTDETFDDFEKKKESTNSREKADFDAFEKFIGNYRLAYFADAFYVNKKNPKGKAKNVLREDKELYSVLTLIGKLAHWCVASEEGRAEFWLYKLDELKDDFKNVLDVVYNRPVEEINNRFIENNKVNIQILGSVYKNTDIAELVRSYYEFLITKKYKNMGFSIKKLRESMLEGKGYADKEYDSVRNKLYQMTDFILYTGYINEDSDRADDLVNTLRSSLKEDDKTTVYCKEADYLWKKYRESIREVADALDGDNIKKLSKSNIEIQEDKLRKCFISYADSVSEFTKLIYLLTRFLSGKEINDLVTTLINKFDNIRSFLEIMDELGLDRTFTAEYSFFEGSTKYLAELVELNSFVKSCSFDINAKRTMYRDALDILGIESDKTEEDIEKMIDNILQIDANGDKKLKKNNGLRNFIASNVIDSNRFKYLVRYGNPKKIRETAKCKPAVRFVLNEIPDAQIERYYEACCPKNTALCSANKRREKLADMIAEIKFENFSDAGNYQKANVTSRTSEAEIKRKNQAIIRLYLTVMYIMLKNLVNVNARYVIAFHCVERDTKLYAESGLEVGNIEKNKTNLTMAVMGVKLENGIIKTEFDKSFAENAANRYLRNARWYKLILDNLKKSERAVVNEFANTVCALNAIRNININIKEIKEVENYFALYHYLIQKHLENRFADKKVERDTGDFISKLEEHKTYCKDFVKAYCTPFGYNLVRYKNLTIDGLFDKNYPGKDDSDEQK

B1: target 3 insC 3' of 3,insG 3' of 1 (mixed)
RNA 1: CACCCGUGCAAAAUUGCAGGGGUCUAAAACGACCUGAAUAUUUCAGAUCAAA
RNA 2: GGGAAUGGAUCCACAUCUACGAAUUCGUUUUUGAUCUGAAAUAUUCAGGCUCGUGCAGAUCGGAAGAGCACACGU
B2: target 3 G4A,U22A (mixed)
RNA 1: CACCCGUGCAAAAUUGCAGGGGUCUAAAACGACCUGAAUAUUUCAGAUCAAA
RNA 2: GGGAAUGGAUCCACAUCUACGAAUUCGUUAUUGAUCUGAAAUAUUCAAGUCUGCAGAUCGGAAGAGCACACGU
B3: target 3 G4U,G19U (mixed)
RNA 1: CACCCGUGCAAAAUUGCAGGGGUCUAAAACGACCUGAAUAUUUCAGAUCAAA
RNA 2: GGGAAUGGAUCCACAUCUACGAAUUCGUUUUUUAUCUGAAAUAUUCAUGUCUGCAGAUCGGAAGAGCACACGU
B4: target 3 insU 3' of 11,insU 3' of 6 (mixed)
RNA 1: CACCCGUGCAAAAUUGCAGGGGUCUAAAACGACCUGAAUAUUUCAGAUCAAA
RNA 2: GGGAAUGGAUCCACAUCUACGAAUUCGUUUUUGAUCUGAAAUUAUUCUAGGUCUGCAGAUCGGAAGAGCACACGU
B5: target 3 insU 3' of 3,insA 3' of 2 (mixed)
RNA 1: CACCCGUGCAAAAUUGCAGGGGUCUAAAACGACCUGAAUAUUUCAGAUCAAA
RNA 2: GGGAAUGGAUCCACAUCUACGAAUUCGUUUUUGAUCUGAAAUAUUCAGGUUACUGCAGAUCGGAAGAGCACACGU
B6: target 3 insU 3' of 11,insC 3' of 3 (mixed)
RNA 1: CACCCGUGCAAAAUUGCAGGGGUCUAAAACGACCUGAAUAUUUCAGAUCAAA
RNA 2: GGGAAUGGAUCCACAUCUACGAAUUCGUUUUUGAUCUGAAAUUAUUCAGGCUCUGCAGAUCGGAAGAGCACACGU
B7: target 3 del1,del22 (mixed)
RNA 1: CACCCGUGCAAAAUUGCAGGGGUCUAAAACGACCUGAAUAUUUCAGAUCAAA
RNA 2: GGGAAUGGAUCCACAUCUACGAAUUCGUUUUGAUCUGAAAUAUUCAGGUUGCAGAUCGGAAGAGCACACGU
B8: target 3 insA 3' of 6,insA 3' of 6 (mixed)
RNA 1: CACCCGUGCAAAAUUGCAGGGGUCUAAAACGACCUGAAUAUUUCAGAUCAAA
RNA 2: GGGAAUGGAUCCACAUCUACGAAUUCGUUUUUGAUCUGAAAUAUUCAAAGGUCUGCAGAUCGGAAGAGCACACGU
B9: target 3 insC 3' of 12,insU 3' of 3 (mixed)
RNA 1: CACCCGUGCAAAAUUGCAGGGGUCUAAAACGACCUGAAUAUUUCAGAUCAAA
RNA 2: GGGAAUGGAUCCACAUCUACGAAUUCGUUUUUGAUCUGAACAUAUUCAGGUUCUGCAGAUCGGAAGAGCACACGU
B10: target 3 G4A,U7G (mixed)
RNA 1: CACCCGUGCAAAAUUGCAGGGGUCUAAAACGACCUGAAUAUUUCAGAUCAAA
RNA 2: GGGAAUGGAUCCACAUCUACGAAUUCGUUUUUGAUCUGAAAUAUGCAAGUCUGCAGAUCGGAAGAGCACACGU
B11: target 3 insU 3' of 13,insU 3' of 4 (mixed)
RNA 1: CACCCGUGCAAAAUUGCAGGGGUCUAAAACGACCUGAAUAUUUCAGAUCAAA
RNA 2: GGGAAUGGAUCCACAUCUACGAAUUCGUUUUUGAUCUGAUAAUAUUCAGUGUCUGCAGAUCGGAAGAGCACACGU
B12: target 3 C6U,A18G (mixed)
RNA 1: CACCCGUGCAAAAUUGCAGGGGUCUAAAACGACCUGAAUAUUUCAGAUCAAA
RNA 2: GGGAAUGGAUCCACAUCUACGAAUUCGUUUUUGGUCUGAAAUAUUUAGGUCUGCAGAUCGGAAGAGCACACGU
B13: target 3 del22 (mixed)
RNA 1: CACCCGUGCAAAAUUGCAGGGGUCUAAAACGACCUGAAUAUUUCAGAUCAAA
RNA 2: GGGAAUGGAUCCACAUCUACGAAUUCGUUUUGAUCUGAAAUAUUCAGGUCUGCAGAUCGGAAGAGCACACGU
B14: target 3 C1G,U7C (mixed)
RNA 1: CACCCGUGCAAAAUUGCAGGGGUCUAAAACGACCUGAAUAUUUCAGAUCAAA
RNA 2: GGGAAUGGAUCCACAUCUACGAAUUCGUUUUUGAUCUGAAAUAUCCAGGUGUGCAGAUCGGAAGAGCACACGU
B15: target 3 insA 3' of 10,insC 3' of 10 (mixed)
RNA 1: CACCCGUGCAAAAUUGCAGGGGUCUAAAACGACCUGAAUAUUUCAGAUCAAA
RNA 2: GGGAAUGGAUCCACAUCUACGAAUUCGUUUUUGAUCUGAAAUACAUUCAGGUCUGCAGAUCGGAAGAGCACACGU
B16: target 3 G3C,A11G (mixed)
RNA 1: CACCCGUGCAAAAUUGCAGGGGUCUAAAACGACCUGAAUAUUUCAGAUCAAA
RNA 2: GGGAAUGGAUCCACAUCUACGAAUUCGUUUUUGAUCUGAAGUAUUCAGCUCUGCAGAUCGGAAGAGCACACGU
B17: target 3 insG 3' of 9,insA 3' of 2 (mixed)
RNA 1: CACCCGUGCAAAAUUGCAGGGGUCUAAAACGACCUGAAUAUUUCAGAUCAAA
RNA 2: GGGAAUGGAUCCACAUCUACGAAUUCGUUUUUGAUCUGAAAUAGUUCAGGUACUGCAGAUCGGAAGAGCACACGU
B18: target 3 insU 3' of 16,insU 3' of 16 (mixed)
RNA 1: CACCCGUGCAAAAUUGCAGGGGUCUAAAACGACCUGAAUAUUUCAGAUCAAA
RNA 2: GGGAAUGGAUCCACAUCUACGAAUUCGUUUUUGAUCUUUGAAAUAUUCAGGUCUGCAGAUCGGAAGAGCACACGU
B19: target 3 insG 3' of 7,insC 3' of 2 (mixed)
RNA 1: CACCCGUGCAAAAUUGCAGGGGUCUAAAACGACCUGAAUAUUUCAGAUCAAA
RNA 2: GGGAAUGGAUCCACAUCUACGAAUUCGUUUUUGAUCUGAAAUAUUGCAGGUCCUGCAGAUCGGAAGAGCACACGU
B20: target 1 insG 3' of 19,insG 3' of 3 (mixed)
RNA 1: CACCCGUGCAAAAAUGCAGGGGUCUAAAACUGAGCGGAUAACCUCUCUAUGG
RNA 2: GGGAAUGGAUCCACAUCUACGAAUUCGUACCAUGAGAGAGGUUAUCCGCUGCACCGAGAUCGGAAGAGCACACGU
B21: target 1 insG 3' of 20,insG 3' of 3 (mixed)
RNA 1: CACCCGUGCAAAAAUGCAGGGGUCUAAAACUGAGCGGAUAACCUCUCUAUGG
RNA 2: GGGAAUGGAUCCACAUCUACGAAUUCGUACCAGUAGAGAGGUUAUCCGCUGCACCGAGAUCGGAAGAGCACACGU
B22: target 1 insU 3' of 12,insC 3' of 12 (mixed)
RNA 1: CACCCGUGCAAAAAUGCAGGGGUCUAAAACUGAGCGGAUAACCUCUCUAUGG
RNA 2: GGGAAUGGAUCCACAUCUACGAAUUCGUACCAUAGAGAGGUCUUAUCCGCUCACCGAGAUCGGAAGAGCACACGU
B23: target 1 U8G,U11C (mixed)
RNA 1: CACCCGUGCAAAAAUGCAGGGGUCUAAAACUGAGCGGAUAACCUCUCUAUGG
RNA 2: GGGAAUGGAUCCACAUCUACGAAUUCGUACCAUAGAGAGGCUAGCCGCUCACCGAGAUCGGAAGAGCACACGU

A word on the Kd: it is the concentration at which binding is half-saturated. Higher therefore signals weaker binding.

In the series the target is T1, EsCas13d, nuclease-dead. As to the kind of experiment: crRNA (strand 1, pre-loaded); Mg2+; 40 mM Tris-HCl pH 7.5, 150 mM NaCl, 6 mM MgCl2, 1 mM DTT, 0.1% Tween-20, 0.2 mg/ml BSA; 25 C; 10 min per concentration, then washed. As to conditions: tags: His6-TwinStrep-SUMO cleaved; N-terminal SNAP kept (SNAP-Surface 488); label: 3' end held by stalled T7 RNA polymerase.
Molecule B1 came in with a dissociation constant Kd of 27.1 ± 7.05 nM. The same measure for B2: 5.71 ± 0.47 nM; for B3: 77.5 ± 10 nM; for B4: 95 ± 14.5 nM.

Molecule B5 registered a Kd of 39 ± 5 nM. B6 yielded a Kd of 58 ± 9.5 nM. For B7, the Kd amounted to 29 ± 6 nM. Molecule B8 displayed an equilibrium dissociation constant (Kd) of 4.96 ± 0.355 nM.

In turn, B9 came in with a Kd of 106 ± 34 nM. In turn, B10 gave a dissociation constant Kd of 30.2 ± 3.35 nM. To B11 belongs 49.5 ± 17.5 nM. In the case of B12, the Kd is 20.3 ± 2.65 nM. To B13 belongs 10.3 ± 1.2 nM; to B14, 73.5 ± 36 nM; to B15, 100 ± 37.5 nM.

B16 showed a Kd of 61 ± 12 nM. To B17 belongs roughly 102 nM. The same measure for B18: 76.5 ± 12 nM. B19: the affinity, expressed as Kd, was 88 ± 17.5 nM. The same measure for B20: 41 ± 2.4 nM. B21 gave an equilibrium dissociation constant (Kd) of 31 ± 9 nM.

For B22, binding was put at a Kd of 27.6 ± 2.9 nM. To B23 belongs 29.5 ± 3.1 nM.
